Patent US20190048089A1 (Janssen / Centocor, published 2019)

T1: cyno CD40 on cyno spleen B cells (Macaca fascicularis (cynomolgus), UniProt P25942 21-277 (human entry))
T1 chain: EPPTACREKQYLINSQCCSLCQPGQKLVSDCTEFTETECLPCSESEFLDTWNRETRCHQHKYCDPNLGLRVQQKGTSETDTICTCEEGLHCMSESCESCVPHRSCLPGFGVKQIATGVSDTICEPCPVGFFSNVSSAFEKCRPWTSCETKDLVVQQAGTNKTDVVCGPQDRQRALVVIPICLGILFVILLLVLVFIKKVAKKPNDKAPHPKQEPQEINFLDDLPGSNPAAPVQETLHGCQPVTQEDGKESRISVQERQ


Columns and labels:
[1] = target: T1, cyno CD40 on cyno spleen B cells; test: cell-based or functional assay
[2] = target: T2, human CD40 on cells (human tonsillar B cells, human dendritic cells, HEK-Blue CD40L cells) (human, UniProt P25942 21-277); test: cell-based or functional assay
[3] = target: T3, human CD40 (analyte in SPR) (human, UniProt P25942 21-193); test: SPR, ProteOn XPR36, mAb captured on anti-human IgG Fc, CD40 as analyte, 25 C, 1:1 Langmuir
T3 construct: also called huCD40
Description: Affinity of the antibodies to human CD40 was assessed using Surface Plasmon Resonance (SPR) using a ProteOn XPR36 system (BioRad). […] Approximately 5000 RU (response units) of mAbs were immobilized. The kinetic experiments were performed at 25° C. in running buffer (DPBS+0.01% P20+100 μg/ml BSA). To perform kinetic experiments, 200 RU of mAbs were captured followed by injections of analytes (human or cyno CD40) at 5 concentrations (in a 4-fold serial dilution). The association phase was monitored for 3 minutes at 50 μL/min, then followed by 15 minutes of buffer flow (dissociation phase). The chip surface was regenerated with two 18 second pulses of 100 mM H₃PO₄ (Sigma, Cat#7961) at 100 μL/min.
The collected data were processed using ProteOn Manager software. First, the data was corrected for background using inter-spots. Then, double reference subtraction of the data was performed by using the buffer injection for analyte injections. The kinetic analysis of the data was performed using a Langmuir 1:1 binding model. The results were reported in the format of Ka (On-rate), Kd (Off-rate) and KD (equilibrium dissociation constant).

[4] = target: T3, human CD40 (analyte in SPR); test: affinity in benchmark table; method not restated (SPR ProteOn of Example 3 presumed); Table 14 benchmark table, not Table 12
[5] = target: T2, human CD40 on cells (human tonsillar B …); test: cell-based or functional assay; remark: listed apart in the source
[6] = target: T2, human CD40 on cells (human tonsillar B …); test: cell-based or functional assay; remark: listed apart in the source
[7] = target: T2, human CD40 on cells (human tonsillar B …); test: cell-based or functional assay; remark: listed apart in the source
[8] = target: T3, human CD40 (analyte in SPR); test: affinity in benchmark table; method not restated (SPR ProteOn of Example 3 presumed)
[9] = target: T1, cyno CD40 on cyno spleen B cells; test: cell-based or functional assay

| Binder | IC50, sCD40L-driven cyno B-cell proliferation [1] | IC50, mCD40L-driven human B-cell proliferation [2] | IC50, sCD40L-driven human B-cell proliferation [2] | Kd [3] | koff [3] | kon [3] | Kd [4] | IC50, mCD40L-driven DC IL-12p40 production [5] | IC50, sCD40L-driven DC IL-12p40 production [5] | IC50, B cell proliferation, membrane CD40L, human B-cells [6] | IC50, B cell proliferation, soluble CD40L, human B-cells [6] | IC50, human DC IL-12p40 production, membrane CD40L [7] | IC50, human DC IL-12p40 production, soluble CD40L [7] | Kd [8] | IC50, B cell proliferation, soluble CD40L, cyno B-cells [9] |
| --- | --- | --- | --- | --- | --- | --- | --- | --- | --- | --- | --- | --- | --- | --- | --- |
| C40B176 (antibody, human IgG1, lambda, IgG1sigma) heavy: EVQLVESGGGLVQPGGSLRLSCAASGFTFSSYAMSWVRQAPGKGLEWVSTINAAGGGTYYADSVKGRFTISRDNSKNTLYLQMNSLRAEDTAVYYCAKEGGKYYYYALDVWGQGTTVTVSSASTKGPSVFPLAPSSKSTSGGTAALGCLVKDYFPEPVTVSWNSGALTSGVHTFPAVLQSSGLYSLSSVVTVPSSSLGTQTYICNVNHKPSNTKVDKKVEPKSCDKTHTCPPCPAPEAAGASSVFLFPPKPKDTLMISRTPEVTCVVVDVSAEDPEVKFNWYVDGVEVHNAKTKPREEQYNSTYRVVSVLTVLHQDWLNGKEYKCKVSNKALPSSIEKTISKAKGQPREPQVYTLPPSREEMTKNQVSLTCLVKGFYPSDIAVEWESNGQPENNYKTTPPVLDSDGSFFLYSKLTVDKSRWQQGNVFSCSVMHEALHNHYTQKSLSLSPGK light: SYELTQPPSVSVSPGQTASITCSGDKLGDKYAAWYQQKPGQSPVLVIYQDSRRPSGIPERFSGSNSGNTATLTISGTQAMDEADYYCQAWASSTVVFGGGTKLTVLGQPKAAPSVTLFPPSSEELQANKATLVCLISDFYPGAVTVAWKADSSPVKAGVETTTPSKQSNNKYAASSYLSLTPEQWKSHRSYSCQVTHEGSTVEKTVAPTECS | 0.108 nM | 0.181 nM | 0.132 nM | 0.107 nM | 0.000307 s⁻¹ | 2.86e+06 M⁻¹ s⁻¹ | 0.0496 nM | 0.245 nM | 0.22 nM |  |  |  |  |  |  |
| Antibody D (antibody, human IgG1, kappa, L234A L235A, V domains shown, Benchmark; also called antibody B IgG1KOb (U.S. Pat. No. 8,591,900)) VH: EVQLVESGGGLVKPGGSLRLSCAASGFTFSDYGMHWVRQAPGKGLEWVAYISSGNRIIYYADTVKGRFTISRDNAKNSLYLQMNSLRAEDTAVYYCARQDGYRYAMDYWGQGTLVTVSS VL: DIVMTQSPDSLAVSLGEKVTINCKSSQSLLNSGNQKNYLTWHQQKPGQPPKLLIYWTSTRESGVPDRFSGSGSGTDFTLTISSLQAEDVAVYYCQNDYTYPLTFGGGTKVEIKR |  |  |  |  |  |  |  |  |  | 1.93 nM | 0.68 nM | 3.63 nM | 0.781 nM | 0.58 nM |  |

Continued, values first:

| IC50, sCD40L-driven cyno B-cell proliferation [1] | IC50, mCD40L-driven human B-cell proliferation [2] | IC50, sCD40L-driven human B-cell proliferation [2] | Kd [3] | koff [3] | kon [3] | Kd [4] | IC50, mCD40L-driven DC IL-12p40 production [5] | IC50, sCD40L-driven DC IL-12p40 production [5] | IC50, B cell proliferation, membrane CD40L, human B-cells [6] | IC50, B cell proliferation, soluble CD40L, human B-cells [6] | IC50, human DC IL-12p40 production, membrane CD40L [7] | IC50, human DC IL-12p40 production, soluble CD40L [7] | Kd [8] | IC50, B cell proliferation, soluble CD40L, cyno B-cells [9] | Binder |
| --- | --- | --- | --- | --- | --- | --- | --- | --- | --- | --- | --- | --- | --- | --- | --- |
|  |  |  |  |  |  |  |  |  | 0.279 nM | 0.223 nM | 0.948 nM | 0.32 nM | 0.00936 nM |  | Novartis CFZ533 (antibody, human IgG1, kappa, N297A, V domains shown, Benchmark) VH: QVQLVESGGGVVQPGRSLRLSCAASGFTFSSYGMHWVRQAPGKGLEWVAVISYEESNRYHADSVKGRFTISRDNSKITLYLQMNSLRTEDTAVYYCARDGGIAAPGPDYWGQGTLVTVSS VL: DIVMTQSPLSLTVTPGEPASISCRSSQSLLYSNGYNYLDWYLQKPGQSPQVLISLGSNRASGVPDRFSGSGSGTDFTLKISRVEAEDVGVYYCMQARQTPFTFGPGTKVDIRR |
|  |  |  |  |  |  |  |  |  | 0.132 nM | 0.079 nM | 0.28 nM | 0.119 nM | 0.181 nM | 0.146 nM | Astellas/Kirin ASKP-1240 (antibody, human IgG4 S228P, kappa, V domains shown, Benchmark) VH: QLQLQESGPGLLKPSETLSLTCTVSGGSISSPGYYGGWIRQPPGKGLEWIGSIYKSGSTYHNPSLKSRVTISVDTSKNQFSLKLSSVTAADTAVYYCTRPVVRYFGWFDPWGQGTLVTVSS VL: AIQLTQSPSSLSASVGDRVTITCRASQGISSALAWYQQKPGKAPKLLIYDASNLESGVPSRFSGSGSGTDFTLTISSLQPEDFATYYCQQFNSYPTFGQGTKVEIKR |
